According to article PMC5028113:

Target: interferon-gamma (IFN-γ) (UniProt P01579 24-161)
Assay: competition

Sequence of interferon-gamma (IFN-γ) (P01579 24-161): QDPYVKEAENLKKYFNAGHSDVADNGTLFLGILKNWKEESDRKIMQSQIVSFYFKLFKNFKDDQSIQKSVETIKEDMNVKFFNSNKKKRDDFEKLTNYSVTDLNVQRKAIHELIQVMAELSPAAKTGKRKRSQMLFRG

B1: IFN-γ aptamer hybridized with biotin-DNA and thiol-DNA (invertase conjugate) (mixed)
DNA 1: TGGGGTTGGTTGTGTTGGGTGTTGTGTAAAAAAAAAAAAAACTACTCATCTGTGA
DNA 2: AAAAAAAAAAAATCACAGATGAGTAGT
?: AAAAAAAAAAACAACCAACCCCA
modifications: 5' biotin on strand 2; 5' thiol on strand 3
binding result: binds
